# Assay results as given in patent publication US20220048967A1 (published 2022).
# Numbered stars: 1 amine (or outer) side, 2 acyl side, 3 side chain; on linkers, the order of the positions; unused ones are H or OH. Square brackets hold non-standard residues; d marks the D form. Side chains are listed from the residue outwards. Ends that are not written are not given here. * marks the point of attachment. C20 diacid = O=C(O)CCCCCCCCCCCCCCCCCCC(=O)*; γGlu = O=C(O)[C@H](CCC(=O)[*:2])N[*:1]; AEEA = NCCOCCOCC(=O)O; Aib = CC(C)(N)C(=O)O
# T1: human GIP receptor (human, UniProt P48546 22-466)
# T1 sequence (looked up): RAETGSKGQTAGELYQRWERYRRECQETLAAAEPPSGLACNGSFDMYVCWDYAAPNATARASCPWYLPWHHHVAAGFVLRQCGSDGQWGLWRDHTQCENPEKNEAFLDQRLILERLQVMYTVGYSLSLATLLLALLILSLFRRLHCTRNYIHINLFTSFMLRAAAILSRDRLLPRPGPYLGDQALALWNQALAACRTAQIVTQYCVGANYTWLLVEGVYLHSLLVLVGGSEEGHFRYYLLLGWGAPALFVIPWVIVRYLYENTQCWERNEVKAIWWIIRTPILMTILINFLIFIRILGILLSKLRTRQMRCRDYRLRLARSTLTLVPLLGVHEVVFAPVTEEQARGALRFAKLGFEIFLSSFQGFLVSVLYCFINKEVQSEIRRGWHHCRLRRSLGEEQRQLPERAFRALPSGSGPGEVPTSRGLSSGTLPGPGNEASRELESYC
# B1: Example 37 (peptide)
# peptide: Y[Aib]EGTFTSDYSILLDKIAQ[Aib]AFIEYLIK([AEEA-AEEA-γGlu-C20 diacid])GGPSSGAPPPS-NH2
# modifications: N-terminus assumed
# SMILES: CC[C@H](C)[C@H](NC(=O)[C@H](CCCCN)NC(=O)[C@H](CC(=O)O)NC(=O)[C@H](CC(C)C)NC(=O)[C@H](CC(C)C)NC(=O)[C@@H](NC(=O)[C@H](CO)NC(=O)[C@H](Cc1ccc(O)cc1)NC(=O)[C@H](CC(=O)O)NC(=O)[C@H](CO)NC(=O)[C@@H](NC(=O)[C@H](Cc1ccccc1)NC(=O)[C@@H](NC(=O)CNC(=O)[C@H](CCC(=O)O)NC(=O)C(C)(C)NC(=O)[C@@H](N)Cc1ccc(O)cc1)[C@@H](C)O)[C@@H](C)O)[C@@H](C)CC)C(=O)N[C@@H](C)C(=O)N[C@@H](CCC(N)=O)C(=O)NC(C)(C)C(=O)N[C@@H](C)C(=O)N[C@@H](Cc1ccccc1)C(=O)N[C@H](C(=O)N[C@@H](CCC(=O)O)C(=O)N[C@@H](Cc1ccc(O)cc1)C(=O)N[C@@H](CC(C)C)C(=O)N[C@H](C(=O)N[C@@H](CCCCNC(=O)COCCOCCNC(=O)COCCOCCNC(=O)CC[C@H](NC(=O)CCCCCCCCCCCCCCCCCCC(=O)O)C(=O)O)C(=O)NCC(=O)NCC(=O)N1CCC[C@H]1C(=O)N[C@@H](CO)C(=O)N[C@@H](CO)C(=O)NCC(=O)N[C@@H](C)C(=O)N1CCC[C@H]1C(=O)N1CCC[C@H]1C(=O)N1CCC[C@H]1C(=O)N[C@@H](CO)C(N)=O)[C@@H](C)CC)[C@@H](C)CC
# B2: Example 42 (peptide)
# peptide: Y[Aib]EGTFTSDYSILLDKIAQ[Aib]AFIEYLIEGGPSK([AEEA-AEEA-γGlu-C20 diacid])GAPPPS-NH2
# modifications: N-terminus assumed
# SMILES: CC[C@H](C)[C@H](NC(=O)[C@H](CCCCN)NC(=O)[C@H](CC(=O)O)NC(=O)[C@H](CC(C)C)NC(=O)[C@H](CC(C)C)NC(=O)[C@@H](NC(=O)[C@H](CO)NC(=O)[C@H](Cc1ccc(O)cc1)NC(=O)[C@H](CC(=O)O)NC(=O)[C@H](CO)NC(=O)[C@@H](NC(=O)[C@H](Cc1ccccc1)NC(=O)[C@@H](NC(=O)CNC(=O)[C@H](CCC(=O)O)NC(=O)C(C)(C)NC(=O)[C@@H](N)Cc1ccc(O)cc1)[C@@H](C)O)[C@@H](C)O)[C@@H](C)CC)C(=O)N[C@@H](C)C(=O)N[C@@H](CCC(N)=O)C(=O)NC(C)(C)C(=O)N[C@@H](C)C(=O)N[C@@H](Cc1ccccc1)C(=O)N[C@H](C(=O)N[C@@H](CCC(=O)O)C(=O)N[C@@H](Cc1ccc(O)cc1)C(=O)N[C@@H](CC(C)C)C(=O)N[C@H](C(=O)N[C@@H](CCC(=O)O)C(=O)NCC(=O)NCC(=O)N1CCC[C@H]1C(=O)N[C@@H](CO)C(=O)N[C@@H](CCCCNC(=O)COCCOCCNC(=O)COCCOCCNC(=O)CC[C@H](NC(=O)CCCCCCCCCCCCCCCCCCC(=O)O)C(=O)O)C(=O)NCC(=O)N[C@@H](C)C(=O)N1CCC[C@H]1C(=O)N1CCC[C@H]1C(=O)N1CCC[C@H]1C(=O)N[C@@H](CO)C(N)=O)[C@@H](C)CC)[C@@H](C)CC
# B3: Example 41 (peptide)
# peptide: Y[Aib]EGTFTSDYSILLDKIAQ[Aib]AFIEYLIEGGPK([AEEA-AEEA-γGlu-C20 diacid])SGAPPPS-NH2
# modifications: N-terminus assumed
# SMILES: CC[C@H](C)[C@H](NC(=O)[C@H](CCCCN)NC(=O)[C@H](CC(=O)O)NC(=O)[C@H](CC(C)C)NC(=O)[C@H](CC(C)C)NC(=O)[C@@H](NC(=O)[C@H](CO)NC(=O)[C@H](Cc1ccc(O)cc1)NC(=O)[C@H](CC(=O)O)NC(=O)[C@H](CO)NC(=O)[C@@H](NC(=O)[C@H](Cc1ccccc1)NC(=O)[C@@H](NC(=O)CNC(=O)[C@H](CCC(=O)O)NC(=O)C(C)(C)NC(=O)[C@@H](N)Cc1ccc(O)cc1)[C@@H](C)O)[C@@H](C)O)[C@@H](C)CC)C(=O)N[C@@H](C)C(=O)N[C@@H](CCC(N)=O)C(=O)NC(C)(C)C(=O)N[C@@H](C)C(=O)N[C@@H](Cc1ccccc1)C(=O)N[C@H](C(=O)N[C@@H](CCC(=O)O)C(=O)N[C@@H](Cc1ccc(O)cc1)C(=O)N[C@@H](CC(C)C)C(=O)N[C@H](C(=O)N[C@@H](CCC(=O)O)C(=O)NCC(=O)NCC(=O)N1CCC[C@H]1C(=O)N[C@@H](CCCCNC(=O)COCCOCCNC(=O)COCCOCCNC(=O)CC[C@H](NC(=O)CCCCCCCCCCCCCCCCCCC(=O)O)C(=O)O)C(=O)N[C@@H](CO)C(=O)NCC(=O)N[C@@H](C)C(=O)N1CCC[C@H]1C(=O)N1CCC[C@H]1C(=O)N1CCC[C@H]1C(=O)N[C@@H](CO)C(N)=O)[C@@H](C)CC)[C@@H](C)CC
# B4: Example 40 (peptide)
# peptide: Y[Aib]EGTFTSDYSILLDKIAQ[Aib]AFIEYLIEGGK([AEEA-AEEA-γGlu-C20 diacid])SSGAPPPS-NH2
# modifications: N-terminus assumed
# SMILES: CC[C@H](C)[C@H](NC(=O)[C@H](CCCCN)NC(=O)[C@H](CC(=O)O)NC(=O)[C@H](CC(C)C)NC(=O)[C@H](CC(C)C)NC(=O)[C@@H](NC(=O)[C@H](CO)NC(=O)[C@H](Cc1ccc(O)cc1)NC(=O)[C@H](CC(=O)O)NC(=O)[C@H](CO)NC(=O)[C@@H](NC(=O)[C@H](Cc1ccccc1)NC(=O)[C@@H](NC(=O)CNC(=O)[C@H](CCC(=O)O)NC(=O)C(C)(C)NC(=O)[C@@H](N)Cc1ccc(O)cc1)[C@@H](C)O)[C@@H](C)O)[C@@H](C)CC)C(=O)N[C@@H](C)C(=O)N[C@@H](CCC(N)=O)C(=O)NC(C)(C)C(=O)N[C@@H](C)C(=O)N[C@@H](Cc1ccccc1)C(=O)N[C@H](C(=O)N[C@@H](CCC(=O)O)C(=O)N[C@@H](Cc1ccc(O)cc1)C(=O)N[C@@H](CC(C)C)C(=O)N[C@H](C(=O)N[C@@H](CCC(=O)O)C(=O)NCC(=O)NCC(=O)N[C@@H](CCCCNC(=O)COCCOCCNC(=O)COCCOCCNC(=O)CC[C@H](NC(=O)CCCCCCCCCCCCCCCCCCC(=O)O)C(=O)O)C(=O)N[C@@H](CO)C(=O)N[C@@H](CO)C(=O)NCC(=O)N[C@@H](C)C(=O)N1CCC[C@H]1C(=O)N1CCC[C@H]1C(=O)N1CCC[C@H]1C(=O)N[C@@H](CO)C(N)=O)[C@@H](C)CC)[C@@H](C)CC
# B5: Example 38 (peptide)
# peptide: Y[Aib]EGTFTSDYSILLDKIAQ[Aib]AFIEYLIEK([AEEA-AEEA-γGlu-C20 diacid])GPSSGAPPPS-NH2
# modifications: N-terminus assumed
# SMILES: CC[C@H](C)[C@H](NC(=O)[C@H](CCCCN)NC(=O)[C@H](CC(=O)O)NC(=O)[C@H](CC(C)C)NC(=O)[C@H](CC(C)C)NC(=O)[C@@H](NC(=O)[C@H](CO)NC(=O)[C@H](Cc1ccc(O)cc1)NC(=O)[C@H](CC(=O)O)NC(=O)[C@H](CO)NC(=O)[C@@H](NC(=O)[C@H](Cc1ccccc1)NC(=O)[C@@H](NC(=O)CNC(=O)[C@H](CCC(=O)O)NC(=O)C(C)(C)NC(=O)[C@@H](N)Cc1ccc(O)cc1)[C@@H](C)O)[C@@H](C)O)[C@@H](C)CC)C(=O)N[C@@H](C)C(=O)N[C@@H](CCC(N)=O)C(=O)NC(C)(C)C(=O)N[C@@H](C)C(=O)N[C@@H](Cc1ccccc1)C(=O)N[C@H](C(=O)N[C@@H](CCC(=O)O)C(=O)N[C@@H](Cc1ccc(O)cc1)C(=O)N[C@@H](CC(C)C)C(=O)N[C@H](C(=O)N[C@@H](CCC(=O)O)C(=O)N[C@@H](CCCCNC(=O)COCCOCCNC(=O)COCCOCCNC(=O)CC[C@H](NC(=O)CCCCCCCCCCCCCCCCCCC(=O)O)C(=O)O)C(=O)NCC(=O)N1CCC[C@H]1C(=O)N[C@@H](CO)C(=O)N[C@@H](CO)C(=O)NCC(=O)N[C@@H](C)C(=O)N1CCC[C@H]1C(=O)N1CCC[C@H]1C(=O)N1CCC[C@H]1C(=O)N[C@@H](CO)C(N)=O)[C@@H](C)CC)[C@@H](C)CC
# B6: Example 39 (peptide)
# peptide: Y[Aib]EGTFTSDYSILLDKIAQ[Aib]AFIEYLIEGK([AEEA-AEEA-γGlu-C20 diacid])PSSGAPPPS-NH2
# modifications: N-terminus assumed
# SMILES: CC[C@H](C)[C@H](NC(=O)[C@H](CCCCN)NC(=O)[C@H](CC(=O)O)NC(=O)[C@H](CC(C)C)NC(=O)[C@H](CC(C)C)NC(=O)[C@@H](NC(=O)[C@H](CO)NC(=O)[C@H](Cc1ccc(O)cc1)NC(=O)[C@H](CC(=O)O)NC(=O)[C@H](CO)NC(=O)[C@@H](NC(=O)[C@H](Cc1ccccc1)NC(=O)[C@@H](NC(=O)CNC(=O)[C@H](CCC(=O)O)NC(=O)C(C)(C)NC(=O)[C@@H](N)Cc1ccc(O)cc1)[C@@H](C)O)[C@@H](C)O)[C@@H](C)CC)C(=O)N[C@@H](C)C(=O)N[C@@H](CCC(N)=O)C(=O)NC(C)(C)C(=O)N[C@@H](C)C(=O)N[C@@H](Cc1ccccc1)C(=O)N[C@H](C(=O)N[C@@H](CCC(=O)O)C(=O)N[C@@H](Cc1ccc(O)cc1)C(=O)N[C@@H](CC(C)C)C(=O)N[C@H](C(=O)N[C@@H](CCC(=O)O)C(=O)NCC(=O)N[C@@H](CCCCNC(=O)COCCOCCNC(=O)COCCOCCNC(=O)CC[C@H](NC(=O)CCCCCCCCCCCCCCCCCCC(=O)O)C(=O)O)C(=O)N1CCC[C@H]1C(=O)N[C@@H](CO)C(=O)N[C@@H](CO)C(=O)NCC(=O)N[C@@H](C)C(=O)N1CCC[C@H]1C(=O)N1CCC[C@H]1C(=O)N1CCC[C@H]1C(=O)N[C@@H](CO)C(N)=O)[C@@H](C)CC)[C@@H](C)CC
# Biological target: human GLP-1 receptor (human, UniProt P43220 24-463)
# Test: cell-based or functional assay
Binder,hGLP1R cAMP EC50 ratio,hGLP1R cAMP Rel EC50
B1,0.0533,1.15 nM
B2,0.0471,1.45 nM
B3,0.0637,0.96 nM
B4,0.0801,0.746 nM
B5,0.0217,2.82 nM
B6,0.0323,1.92 nM

# Biological target: T1, human GIP receptor
# Test: cell-based or functional assay
Binder,hGIPR cAMP EC50 ratio,hGIPR cAMP Rel EC50
B1,0.532,0.269 nM
B2,0.897,0.161 nM
B3,0.637,0.229 nM
B4,1.06,0.136 nM
B5,0.967,0.147 nM
B6,1.07,0.133 nM
